How the values were obtained:
human CD33 [1] = molecular target: T1, human CD33 (human, UniProt P20138 18-364); assay: flow cytometry titration, HL-60 cells
T1 construct: whole, on cells; also called huCD33; CD33 on HL-60, KG-1, KG-1a, U-937 cells
Experimental: (§1) Cells were incubated with 100 μL of serial dilutions of CD33/CD3 2×2 T-cell engagers. After washing three times with FACS buffer the cells were incubated with 0.1 mL of 10 μg/mL mouse monoclonal anti-His antibody in the same buffer for 45 min on ice. After a second washing cycle, the cells were incubated with 0.1 mL of 15 μg/mL FITC-conjugated goat anti-mouse IgG antibodies under the same conditions as before. As a control, cells were incubated with the anti-His IgG followed by the FITC-conjugated goat anti-mouse IgG antibodies without anti-CD33 2×2 T-cell engagers. The cells were then washed again and resuspended in 0.2 mL of FACS buffer containing 2 μg/mL propidium iodide (PI) in order to exclude dead cells. The fluorescence of 1×10⁴ living cells was measured using a Beckman-Coulter FC500 MPL flow cytometer using the MXP software (Beckman-Coulter, Krefeld, Germany) or a Millipore Guava EasyCyte flow cytometer using the Incyte software (Merck Millipore, Schwalbach, Germany). Mean fluorescence intensities of the cell samples were calculated using CXP software (Beckman-Coulter, Krefeld, Germany) or Incyte software (Merck Millipore, Schwalbach, Germany). After subtracting the fluorescence intensity values of the cells stained with the secondary and tertiary reagents alone the values were used for calculation of the KD values with the equation for one-site binding (hyperbola) of the GraphPad Prism (version 6.00 for Windows, GraphPad Software, La Jolla Calif. USA). […]

human CD3 [2] = molecular target: T2, human CD3 (human, UniProt P07766 23-207; P09693 23-182; P04234 22-171; P20963 22-164); assay: flow cytometry, human T-cells
T2 construct: whole, on cells; the description names the epsilon chain only 'in certain instances'; also called hu CD3; CD3 on T cells

human CD33 [3] = molecular target: T1, human CD33; assay: flow cytometry titration, KG-1 cells
Experimental: as §1

human CD33 [4] = molecular target: T1, human CD33; assay: flow cytometry, HL-60 cells
human CD3 [5] = molecular target: T2, human CD3; assay: cell-based or functional assay
human CD33 [6] = molecular target: T1, human CD33; assay: flow cytometry titration, U-937 cells
Experimental: as §1

human CD3 [7] = molecular target: T2, human CD3; assay: flow cytometry titration, T cells (human CD3+)
human CD33 [8] = molecular target: T1, human CD33; assay: cell-based or functional assay

T2 sequence (P07766 23-207, chain 1 of 4): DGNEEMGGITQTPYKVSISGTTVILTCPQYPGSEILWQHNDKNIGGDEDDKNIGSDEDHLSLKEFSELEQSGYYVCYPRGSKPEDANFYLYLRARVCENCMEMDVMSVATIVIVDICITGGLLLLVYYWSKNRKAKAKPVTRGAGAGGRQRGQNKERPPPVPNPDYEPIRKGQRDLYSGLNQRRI
T2 sequence (P09693 23-182, chain 2 of 4): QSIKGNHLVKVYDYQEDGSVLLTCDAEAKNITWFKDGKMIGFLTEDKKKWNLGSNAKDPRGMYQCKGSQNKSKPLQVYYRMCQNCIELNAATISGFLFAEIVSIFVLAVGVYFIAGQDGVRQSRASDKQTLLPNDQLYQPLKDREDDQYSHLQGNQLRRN
T2 sequence (P04234 22-171, chain 3 of 4): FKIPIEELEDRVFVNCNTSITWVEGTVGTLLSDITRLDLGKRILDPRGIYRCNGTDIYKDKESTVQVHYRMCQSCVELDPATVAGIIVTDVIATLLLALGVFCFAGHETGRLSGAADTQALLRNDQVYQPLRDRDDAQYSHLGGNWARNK
T2 sequence (P20963 22-164, chain 4 of 4): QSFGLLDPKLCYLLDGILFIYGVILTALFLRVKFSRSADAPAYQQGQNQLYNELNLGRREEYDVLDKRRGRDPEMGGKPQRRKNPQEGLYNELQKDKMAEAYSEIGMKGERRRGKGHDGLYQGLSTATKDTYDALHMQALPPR
T1 sequence (P20138 18-364): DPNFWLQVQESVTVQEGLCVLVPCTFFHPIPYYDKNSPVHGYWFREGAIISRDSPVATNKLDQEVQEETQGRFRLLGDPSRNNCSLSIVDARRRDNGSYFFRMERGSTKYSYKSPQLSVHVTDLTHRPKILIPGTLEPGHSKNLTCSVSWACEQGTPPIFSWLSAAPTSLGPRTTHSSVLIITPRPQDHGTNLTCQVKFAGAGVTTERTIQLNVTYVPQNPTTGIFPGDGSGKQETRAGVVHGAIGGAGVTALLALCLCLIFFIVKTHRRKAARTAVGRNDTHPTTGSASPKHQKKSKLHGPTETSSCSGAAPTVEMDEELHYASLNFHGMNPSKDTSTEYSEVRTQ

Row | Kd (human CD33 [1]) [nM] | Kd (human CD3 [2]) [nM] | Kd (human CD33 [3]) [nM] | Kd (human CD33 [4]) [nM] | CD25 Induction EC50 (human CD3 [5]) [nM] | CD69 Induction EC50 (human CD3 [5]) [nM] | T cell Proliferation in PBMC EC50 (human CD3 [5]) [nM] | Kd (human CD33 [6]) [nM] | Kd (human CD3 [7]) [nM] | Binder | EC50 on HL-60 (cytotoxicity) (human CD33 [8]) [nM]
1 | 0.5 | 1.9 | 1 | 0.5 | 0.01 | 0.006 | 0.006 | 1.7 | 1.9 | CD33/CD3 2×2 T-cell engager 10 (bispecific antibody, Non-covalent homodimer) DIQMTQSPSSLSASVGDRVTITCRSSTGAVTTSNYANWVQQKPGKAPKGLIGGTNKRAPGVPSRFSGSLIGDKATLTISSLQPEDFATYYCALWYSNLWVFGQGTKVEIKGGSGGSQVQLVQSGAEVKKPGASVKVSCKASGYTFTSYDINWVRQAPGQGLEWMGWMNPNSGNTGFAQKFQGRVTMTRDTSTSTVYMELSSLRSEDTAVYYCARDRANTDYSFGMDVWGQGTLVTVSSGGSGQSVLTQPPSASGTPGQRVTISCSGSRSNIGSNTVNWYQQLPGTAPKLLIYGNNQRPSGVPDRFSGSKSGTSASLAISGLQSEDEADYYCATWDDSLIGWVFGGGTKLTVLGGSGGSEVQLVESGGGLVQPGGSLRLSCAASGFTFSTYAMNWVRQAPGKGLEWVGRIRSKYNNYATYYADSVKDRFTISRDDSKNSLYLQMNSLKTEDTAVYYCARHGNFGNSYVSWFAYWGQGTLVTVSSAAAGSHHHHHH | 0.007
2 | 0.2 | 69.8 | 0.3 | 0.2 | 0.042 | 0.027 | 0.004 | 0.9 | 69.8 | CD33/CD3 2×2 T-cell engager 02 (bispecific antibody, Non-covalent homodimer; also called 2×2 T-cell engager 2) DIQMTQSPSSLSASVGDRVTITCRSSTGAVTTSNYANWVQQKPGKAPKGLIGGTNKRAPGVPARFSGSGSGTDFTLTISSLQPEDFATYYCALWYSNLWVFGQGTKVEIKGGSGGSQVQLVQSGAEVKKPGASVKVSCKASGYTFTSYDINWVRQAPGQGLEWMGWMNPNSGNTGFAQKFQGRVTMTRDTSTSTVYMELSSLRSEDTAVYYCARDRAVTDYYYGMDVWGQGTLVTVSSGGSGQSVLTQPPSASGTPGQRVTISCSGSRSNIGSNTVNWYQQLPGTAPKLLIYGNNQRPSGVPDRFSGSKSGTSASLAISGLQSEDEADYYCATWDDSLIGWVFGGGTKLTVLGGSGGSEVQLVESGGGLVQPGGSLRLSCAASGFTFSTYAMNWVRQAPGKGLEWVGRIRSKYNNYATYYADSVKDRFTISRDDSKNSLYLQMNSLKTEDTAVYYCARHGNFGNSYVSWFAYWGQGTLVTVSSAAAGSHHHHHH | 0.0005
3 | 0.6 | 94.2 | 0.9 | 0.6 | 0.092 | 0.091 | 0.089 | 7.1 | 94.2 | CD33/CD3 2×2 T-cell engager 01 (bispecific antibody, Non-covalent homodimer; also called 2×2 T-cell engager 1) DIQMTQSPSSLSASVGDRVTITCRSSTGAVTTSNYANWVQQKPGKAPKGLIGGTNKRAPGVPARFSGSGSGTDFTLTISSLQPEDFATYYCALWYSNLWVFGQGTKVEIKGGSGGSQVQLVQSGAEVKKPGASVKVSCKASGYTFTSYDINWVRQAPGQGLEWMGWMNPNSGNTGFAQKFQGRVTMTRDTSTSTVYMELSSLRSEDTAVYYCARDRANTDFSYGMDVWGQGTLVTVSSGGSGQSVLTQPPSASGTPGQRVTISCSGSRSNIGSNTVNWYQQLPGTAPKLLIYGNNQRPSGVPDRFSGSKSGTSASLAISGLQSEDEADYYCATWDDSLIGWVFGGGTKLTVLGGSGGSEVQLVESGGGLVQPGGSLRLSCAASGFTFSTYAMNWVRQAPGKGLEWVGRIRSKYNNYATYYADSVKDRFTISRDDSKNSLYLQMNSLKTEDTAVYYCARHGNFGNSYVSWFAYWGQGTLVTVSSAAAGSHHHHHH | 0.0019
4 | 0.5 | 79.3 | 0.5 | 0.5 | 0.094 | 0.062 | 0.044 | 1.7 | 79.3 | CD33/CD3 2×2 T-cell engager 04 (bispecific antibody, Non-covalent homodimer; also called 2×2 T-cell engager 4) DIQMTQSPSSLSASVGDRVTITCRSSTGAVTTSNYANWVQQKPGKAPKGLIGGTNKRAPGVPARFSGSGSGTDFTLTISSLQPEDFATYYCALWYSNLWVFGQGTKVEIKGGSGGSQVQLVQSGAEVKKPGASVKVSCKASGYTFTSYDINWVRQAPGQGLEWMGWMNPNSGNTGFAQKFQGRVTMTRDTSTSTVYMELSSLRSEDTAVYYCARDRANTDYSLGMDVWGQGTLVTVSSGGSGQSVLTQPPSASGTPGQRVTISCSGSRSNIGSNTVNWYQQLPGTAPKLLIYGNNQRPSGVPDRFSGSKSGTSASLAISGLQSEDEADYYCATWDDSLIGWVFGGGTKLTVLGGSGGSEVQLVESGGGLVQPGGSLRLSCAASGFTFSTYAMNWVRQAPGKGLEWVGRIRSKYNNYATYYADSVKDRFTISRDDSKNSLYLQMNSLKTEDTAVYYCARHGNFGNSYVSWFAYWGQGTLVTVSSAAAGSHHHHHH | 0.0018
5 | 1.1 | 81.9 | 1.8 | 1.1 | 0.117 | 0.087 | 0.063 | 8.9 | 81.9 | CD33/CD3 2×2 T-cell engager 03 (bispecific antibody, Non-covalent homodimer; also called 2×2 T-cell engager 3) DIQMTQSPSSLSASVGDRVTITCRSSTGAVTTSNYANWVQQKPGKAPKGLIGGTNKRAPGVPARFSGSGSGTDFTLTISSLQPEDFATYYCALWYSNLWVFGQGTKVEIKGGSGGSQVQLVQSGAEVKKPGASVKVSCKASGYTFTSYDINWVRQAPGQGLEWMGWMNPNSGNTGFAQKFQGRVTMTRDTSTSTVYMELSSLRSEDTAVYYCARDRANTDYSFGMDVWGQGTLVTVSSGGSGQSVLTQPPSASGTPGQRVTISCSGSRSNIGSNTVNWYQQLPGTAPKLLIYGNNQRPSGVPDRFSGSKSGTSASLAISGLQSEDEADYYCATWDDSLIGWVFGGGTKLTVLGGSGGSEVQLVESGGGLVQPGGSLRLSCAASGFTFSTYAMNWVRQAPGKGLEWVGRIRSKYNNYATYYADSVKDRFTISRDDSKNSLYLQMNSLKTEDTAVYYCARHGNFGNSYVSWFAYWGQGTLVTVSSAAAGSHHHHHH | 0.0036
6 | 0.5 | 2.4 | 0.3 | 0.5 | 0.011 | 0.007 | 0.009 | 2.2 | 2.4 | CD33/CD3 2×2 T-cell engager 09 (bispecific antibody, Non-covalent homodimer; also called 2×2 T-cell engager 9) DIQMTQSPSSLSASVGDRVTITCRSSTGAVTTSNYANWVQQKPGKAPKGLIGGTNKRAPGVPSRFSGSLIGDKATLTISSLQPEDFATYYCALWYSNLWVFGQGTKVEIKGGSGGSQVQLVQSGAEVKKPGASVKVSCKASGYTFTSYDINWVRQAPGQGLEWMGWMNPNSGNTGFAQKFQGRVTMTRDTSTSTVYMELSSLRSEDTAVYYCARDRANTDFSYGMDVWGQGTLVTVSSGGSGQSVLTQPPSASGTPGQRVTISCSGSRSNIGSNTVNWYQQLPGTAPKLLIYGNNQRPSGVPDRFSGSKSGTSASLAISGLQSEDEADYYCATWDDSLIGWVFGGGTKLTVLGGSGGSEVQLVESGGGLVQPGGSLRLSCAASGFTFSTYAMNWVRQAPGKGLEWVGRIRSKYNNYATYYADSVKDRFTISRDDSKNSLYLQMNSLKTEDTAVYYCARHGNFGNSYVSWFAYWGQGTLVTVSSAAAGSHHHHHH | 0.0068
7 | 0.3 |  | 0.5 |  |  |  |  | 1.8 | 2.4 | CD33/CD3 2×2 T-cell engager 08 (bispecific antibody, Non-covalent homodimer; also called 2×2 T-cell engager 8) QSVLTQPPSASGTPGQRVTISCSGSRSNIGSNTVNWYQQLPGTAPKLLIYGNNQRPSGVPDRFSGSKSGTSASLAISGLQSEDEADYYCATWDDSLIGWVFGGGTKLTVLGGSGGSEVQLVESGGGLVQPGGSLRLSCAASGFTFSTYAMNWVRQAPGKGLEWVGRIRSKYNNYATYYADSVKDRFTISRDDSKNSLYLQMNSLKTEDTAVYYCARHGNFGNSYVSYFAYWGQGTLVTVSSGGSGGSDIQMTQSPSSLSASVGDRVTITCRSSTGAVTTSNYANWVQQKPGKAPKALIGGTNKRAPGVPSRFSGSLIGDKATLTISSLQPEDFATYYCALWYSNLWVFGQGTKVEIKGGSGGSQVQLVQSGAEVKKPGASVKVSCKASGYTFTSYDINWVRQAPGQGLEWMGWMNPNSGNTGFAQKFQGRVTMTRDTSTSTVYMELSSLRSEDTAVYYCARDRANTDFSYGMDVWGQGTLVTVSSAAAGSHHHHHH | 0.0018
